We go through two molecules from paper PMC6086839, “Elongator mutation in mice induces neurodegeneration and ataxia-like behavior” (Nature Communications, 2018).

T1: yeast Elp4 residues 66-426 (yElp4_(66-426)) (S. cerevisiae, UniProt Q02884 66-426)
T1 construct: source: purified complex
T1 sequence (looked up): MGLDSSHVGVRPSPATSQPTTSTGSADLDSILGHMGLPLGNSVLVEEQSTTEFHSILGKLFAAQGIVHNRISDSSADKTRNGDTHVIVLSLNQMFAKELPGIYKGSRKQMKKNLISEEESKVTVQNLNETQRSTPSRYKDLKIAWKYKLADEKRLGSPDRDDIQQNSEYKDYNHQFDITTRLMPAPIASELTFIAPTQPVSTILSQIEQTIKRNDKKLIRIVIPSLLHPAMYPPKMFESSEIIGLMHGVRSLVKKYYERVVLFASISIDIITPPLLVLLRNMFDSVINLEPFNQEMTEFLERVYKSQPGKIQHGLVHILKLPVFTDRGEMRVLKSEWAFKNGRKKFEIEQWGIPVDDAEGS

B1: yeast Elongator complex subunit 6 (yElp6) (natural protein, S. cerevisiae)
chain: MGSVQRQDLVLFSDQSVLPAHFFQDSNSHNLFFITHQSCTQPLWMINALVETHVLGSPSSLNESSSSMLPSSTRSHAVLASFIHEQNYFTNSLNKLKIPSNNYNVLDFLSDFIVNNIHNKPRDKILSDVLAKFSAAIQNNPTDTIVIIEQPELLLSLVSGLTCSELNNKFITPLLRQCKVLIIVSNSDIFNIDEYDASVHSSNLQNFYKSSFIKSMINLNLNPLKTGFAKDVTGSLHVCRGGAPIATSNTSLHVVENEYLYLNEKESTKLFYR
notes: Elp6, S. cerevisiae, Q04868; printed without limits (yElp456); source: purified Elp456 complex from yeast subunits
B2: yeast Elp5 residues 1-270 (yElp5_(1-270)) (domain or fragment, S. cerevisiae, UniProt P38874 1-270, looked up)
chain: MASSSHNPVILLKRILSLTESSPFILCLDSIAQTSYKLIQEFVHQSKSKGNEYPIVYISFETVNKPSYCTQFIDATQMDFVHLVKQIISYLPAATATQAKKHMVIIDSLNYISTEYITRFLSEIASPHCTMVATYHKDIKDENRTVIPDWNNNYPDKLTLLQFMATTIVDIDVVLTGTLDTEEVSELLNEFRIPRGLNNDIFQLRLVNKRKSGRSLEYDFIVNSNTHEYELLSTTKQEEESSSNGLETPEMLQGLTTFNLGTSNKQKLAK
notes: Elp5, yeast, residues 1-270; source: purified complex

The target in experiment [1] is T1, yeast Elp4 residues 66-426 …. Nature of the experiment: co-purification (NiNTA affinity, then SEC); subunits co-expressed in E. coli; truncated complexes purified as complexes and then used for Thermofluor. The note with it: both partners purified. For orientation: In DSF a fluorescence change marks the thermal transition of the protein.
The target in experiment [2] is B1. Described as above. The note with it: both partners purified.

For B1, the binding result in experiment [1] is reported as “binds”.

Take B2: the binding result in experiment [1] and in experiment [2] was “binds” throughout.
